Results from patent US20210340225A1 (HARBOUR ANTIBODIES, published 2021).

Legend:
[1] = molecular target: SARS2-S with 18-a.a. cytoplasmic tail truncation, on pseudotyped VSV particles (SARS-CoV-2, UniProt P0DTC2 14-1255); experiment: cell-based or functional assay
[2] = molecular target: WIV16-S with 19-a.a. cytoplasmic tail truncation, on pseudotyped VSV particles (bat SARS-like coronavirus WIV16); experiment: cell-based or functional assay
[3] = molecular target: SARS-S with 28-a.a. cytoplasmic tail truncation, on pseudotyped VSV particles (SARS-CoV, UniProt P59594 14-1227); experiment: cell-based or functional assay
[4] = molecular target: T1, SARS-CoV-2 spike S1B receptor binding domain (SARS2-S1B), residues 329-538, Strep-tagged (SARS-CoV-2 (strain Wuhan-Hu-1), UniProt P0DTC2 329-538); experiment: ELISA, antigen coated at equimolar amounts, mAb titrated; ELISA EC50, not BLI
[5] = molecular target: T1, SARS-CoV-2 spike S1B receptor binding …
[6] = molecular target: T2, SARS-CoV spike [change] receptor binding domain (SARS-[change]), residues 325-533, Strep-tagged (SARS-CoV, UniProt P59594 325-533)
[7] = molecular target: T2, SARS-CoV spike [change] receptor …; experiment: ELISA, antigen coated at equimolar amounts, mAb titrated
[8] = molecular target: T3, SARS-CoV-2 spike ectodomain (SARS2-Secto), residues 1-1,213, with C-terminal trimerization motif and Strep-tag (SARS-CoV-2 (strain Wuhan-Hu-1), UniProt P0DTC2 14-1213); experiment: as above
[9] = molecular target: T1, SARS-CoV-2 spike S1B receptor binding …; remark: listed apart in the source
[10] = molecular target: T2, SARS-CoV spike [change] receptor …; remark: listed apart in the source
[11] = molecular target: T3, SARS-CoV-2 spike ectodomain …
[12] = molecular target: T1, SARS-CoV-2 spike S1B receptor binding …; remark: listed apart in the source
[13] = molecular target: T2, SARS-CoV spike [change] receptor …; remark: listed apart in the source
[14] = molecular target: T3, SARS-CoV-2 spike ectodomain …; remark: listed apart in the source
[15] = molecular target: T1, SARS-CoV-2 spike S1B receptor binding …; experiment: ELISA, serial dilution of supernatant after transfection
[16] = molecular target: T2, SARS-CoV spike [change] receptor …; experiment: as above

| Binder | IC50, infection of VeroE6 cells with SARS2-S pseudotyped VSV (luciferase) [1] [µg/mL] | IC50, neutralization of WIV16-S pseudotyped VSV [2] [µg/mL] | IC50, infection of VeroE6 cells with SARS-S pseudotyped VSV (luciferase) [3] [µg/mL] | EC50 [4] [µg/mL] | EC50 (read off the curve) [5] [µg/mL] | EC50 (read off the curve) [6] [µg/mL] | EC50 [7] [µg/mL] | EC50 [8] [µg/mL] | Kd [9] [nM] | Kd [10] [nM] | Kd [11] [nM] | koff [12] [s⁻¹] | kon [12] [M⁻¹ s⁻¹] | koff [13] [s⁻¹] | kon [13] [M⁻¹ s⁻¹] | koff [14] [s⁻¹] | kon [14] [M⁻¹ s⁻¹] | binding result [15] | binding result [16] |
| --- | --- | --- | --- | --- | --- | --- | --- | --- | --- | --- | --- | --- | --- | --- | --- | --- | --- | --- | --- |
| 47D11 fully human IgG1 monoclonal antibody (antibody, V domains shown) VH: QVQLQESGPGLVKPSETLSLTCSVSGGSISSHYWSWIRQPPGKGLEWIGYIYYSGSTNHNPSLKSRVTISVDTSKNQFSLKLSSVTAADTAVYYCARGVLLWFGEPIFEIWGQGTMVTVSS VL: EIVMTQSPATLSVSPGERATLSCRASQSVSSSLAWYQQKPGQAPRLLIYGASTRAPGIPARFSGSGSGTEFTLTISSLQSEDFAVYYCQQYNNWPLTFGGGTKVEIKR | 0.08 | 0.165 | 0.06 | 0.03 | ~0.1 | ~0.1 | 0.02 | 0.15 | 9.6 | 16.1 | 10.8 | 0.000137 | 15100 | 0.00021 | 20000 | 9.85e-05 | 9770 |  |  |
| 49F1 VH41 VL42-4 (antibody, V domains shown) VH: QVQLVQSGAEVKKPGSSVKVSCKASGGTFSSYAINWVRQAPGQGLEWMGGIIPIFGTANSAQKFQGRVTITADKSTSTAYMELSSLRSEDTAVYYCAREAGIPVAGLADWGQGTLVTVSS VL: DIQMTQSPSTLSASVGDRVTITCRASQSISSYLNWYQQKPGKAPKLLIYKASSLESGVPSRFSGSGSGTEFTLTISSLQPDDFGTYYCQQYNSYYTFGQGTKLEIK |  |  |  |  |  |  |  |  |  |  |  |  |  |  |  |  |  | no binding (tested: undiluted supernatant) | no binding (tested: undiluted supernatant) |
